Usually kon stands for the rate constant with which the complex forms. Low values mean slow association, high ones fast association. Broadly, the Kd is the constant that tells how readily two partners part at equilibrium. Usually koff stands for the first-order rate constant of dissociation. Read a high koff as fast dissociation. Broadly, the EC50 is the concentration needed to bring the measured effect to its halfway point. A higher EC50 goes with a need for much substance.

Results on four molecules are retold here after patent publication US20260166185A1 (Y MABS THERAPEUTICS, published 2026).

Experiment [1] has as its target T1, bio-huCD38 (human (hu), UniProt P28907 43-300, biotinylated (bio-), site not stated). Kind of experiment: SPR, antigen immobilized, antibody as analyte 25-1.6 nM. The procedure: (§1) SPR analysis was performed on a Biocore 8K+, using a CFJB0944 CM5 sensor chip for immobilization and a SPR running buffer 1×HBS-EP+pH 7.4 (Cytiva, cat no. BR100669) according to the manufacturer's instructions.
(§2) In the second part of this example, antigen was immobilized on the chip and antibody dissolved in the SPR running buffer flowed over the chip.
(In general: Surface plasmon resonance follows binding to a sensor surface in real time, without labels.)

Experiment [2] concerns the target T1, bio-huCD38. Kind of experiment: SPR, antibody captured on chip, antigen as analyte 200-6.25 nM. As for the experimental part:
as §1
(§3) In the first part of this example the antibody was immobilized on the chip and the antigen dissolved in the SPR running buffer flowed over the chip.

The target of experiment [3] is T1, bio-huCD38. In words: SPR, antigen immobilized, antibody as analyte 25-1.6 nM; estimated from ka and the limit kd, indicative. As for the experimental part:
as §1, §2

Experiment [4] concerns the target T2, CD38 on Daudi cells (UniProt P28907 1-300, limits assumed).
T2 construct: whole, on cells
In words: titration binding FACS on Daudi cells. As for the experimental part:
(§4) Subsequently the EC50 of antibodies samples was determined by titration binding FACS on Daudi cells (for CD38 binding evaluation), on THP-1 cells (for CD33 binding evaluation), on A-431 cells (for EGFR binding evaluation), on MKN-45 cells (for CEACAMS binding evaluation) and on HEK293T (for CD276 binding evaluation). Jurkat E6-1 or HEK293T cell lines were used as negative control, as applicable.

Experiment [5] has as its target T1, bio-huCD38. Kind of experiment: SPR, antigen immobilized, antibody as analyte 25-1.6 nM; at the instrument's limit.
In experiment [6] the target is T1, bio-huCD38. In words: SPR, antigen immobilized, antibody as analyte 25-1.6 nM; estimated from ka and the limit kd. As for the experimental part: as §1, §2
Experiment [7] concerns the target bio-huEGFR (human (hu), UniProt P00533 25-645, biotinylated (bio-), site not stated). In words: SPR, antigen immobilized, antibody as analyte 25-1.6 nM. The procedure: as §1, §2
The target of experiment [8] is T3, EGFR on A-431 cells (UniProt P00533 25-1210, limits assumed).
T3 construct: whole, on cells
Kind of experiment: titration binding FACS on A-431 cells. The procedure:
as §4

Experiment [9] has as its target T4, bio-huCD276 (human (hu), UniProt Q5ZPR3 29-461, limits assumed, biotinylated (bio-), site not stated).
T4 construct: also called B7-H3
T4 sequence (looked up): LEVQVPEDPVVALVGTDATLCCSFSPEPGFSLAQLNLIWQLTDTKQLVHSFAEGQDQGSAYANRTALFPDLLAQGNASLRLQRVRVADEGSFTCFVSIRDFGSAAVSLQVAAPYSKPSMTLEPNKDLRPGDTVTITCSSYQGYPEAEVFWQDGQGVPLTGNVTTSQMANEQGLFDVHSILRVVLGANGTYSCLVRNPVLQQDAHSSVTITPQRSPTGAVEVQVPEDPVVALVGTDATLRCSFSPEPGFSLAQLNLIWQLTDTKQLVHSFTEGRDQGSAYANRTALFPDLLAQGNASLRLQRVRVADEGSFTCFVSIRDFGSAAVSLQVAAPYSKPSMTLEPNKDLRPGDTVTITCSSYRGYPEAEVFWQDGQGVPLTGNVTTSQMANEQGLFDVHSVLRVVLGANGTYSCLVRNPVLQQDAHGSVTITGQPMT
Kind of experiment: SPR, antigen immobilized, antibody as analyte 25-1.6 nM. The procedure:
as §1, §2

The target in experiment [10] is T5, CD276 on HEK293T cells (UniProt Q5ZPR3 29-534, limits assumed).
T5 construct: whole, on cells
T5 sequence (looked up): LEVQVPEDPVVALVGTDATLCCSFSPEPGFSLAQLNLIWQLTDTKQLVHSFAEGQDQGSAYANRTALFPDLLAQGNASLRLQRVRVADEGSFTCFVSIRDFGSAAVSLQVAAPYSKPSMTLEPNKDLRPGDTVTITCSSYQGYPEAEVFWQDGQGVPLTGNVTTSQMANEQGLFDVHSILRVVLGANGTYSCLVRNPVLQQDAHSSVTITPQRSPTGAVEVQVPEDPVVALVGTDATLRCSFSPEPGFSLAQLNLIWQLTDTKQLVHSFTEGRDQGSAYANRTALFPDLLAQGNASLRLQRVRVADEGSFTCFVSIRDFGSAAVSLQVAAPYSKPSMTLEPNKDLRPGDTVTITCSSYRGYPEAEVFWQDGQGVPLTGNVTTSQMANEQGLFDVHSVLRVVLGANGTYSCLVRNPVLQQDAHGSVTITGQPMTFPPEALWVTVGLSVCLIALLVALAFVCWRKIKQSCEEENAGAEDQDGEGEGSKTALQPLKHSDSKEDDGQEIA
Kind of experiment: titration binding FACS on HEK293T cells. As for the experimental part: as §4

In experiment [11] the target is T4, bio-huCD276. Kind of experiment: SPR, antibody captured on chip, antigen as analyte 400-12.5 nM. The procedure:
as §1, §3

B1: CD38(Bivalent)-DOTA(fab)-p53_C-Term (bispecific antibody)
light: QAVVIQESALTTPPGETVTLTCGSSTGAVTASNYANWVQEKPDHLFTGLIGGHNNRPPGVPARFSGSLIGDKAALTIAGTQTEDEAIYFCALWYSDHWVIGGGTRLTVLGQPKANPTVTLFPPSSEELQANKATLVCLISDFYPGAVTVAWKADGSPVKAGVETTKPSKQSNNKYAASSYLSLTPEQWKSHRSYSCQVTHEGSTVEKTVAPTECSGGGGSGGGGSGGGGSGGGGGSDVQLQESGGGLVQAGGSLRLSCTGSGRTFRNYPMAWFRQAPGKEREFVAGITWVGASTLYADFAKGRFTISRDNAKNTVYLQMNSLKPEDTAVYSCAAGRGIVAGRIPAEYADWGQGTQVTVSS
heavy: HVKLQESGPGLVQPSQSLSLTCTVSGFSLTDYGVHWVRQSPGKGLEWLGVIWSGGGTAYNTALISRLNIYRDNSKNQVFLEMNSLQAEDTAMYYCARRGSYPYNYFDAWGRGTTVTVSSASTKGPSVFPLAPSSKSTSGGTAALGCLVKDYFPEPVTVSWNSGALTSGVHTFPAVLQSSGLYSLSSVVTVPSSSLGTQTYICNVNHKPSNTKVDKKVEPKSCGGGGSGGGGSGGGGSGGGGGSDVQLQESGGGLVQAGGSLRLSCTGSGRTFRNYPMAWFRQAPGKEREFVAGITWVGASTLYADFAKGRFTISRDNAKNTVYLQMNSLKPEDTAVYSCAAGRGIVAGRIPAEYADWGQGTQVTVSSGGGGSGGGGSKPLDGEYFTLQIRGRERFEMFRELNEALELKDAQAGKEPGGS
notes: Two identical C-terminal CD38 VHHs; has the p53 tetramerization domain; also called YM00015; molecule 14
As to B1, the values for the kon in [1] and in [2] were 187000 M⁻¹ s⁻¹ and 33800 M⁻¹ s⁻¹, respectively. In addition, the figures for the Kd in experiment [2] and in experiment [3] were 1.89 nM and < 0.000535 nM, respectively. In addition, the koff was 6.41e-05 s⁻¹ in [2] and < 1e-07 s⁻¹ in experiment [5]. Also, the EC50 in experiment [4] stood at 3.24 nM.

B2: CD38 (Bivalent)-DOTA(Fab)-dp53 (bispecific antibody)
light: DVQLQESGGGLVQAGGSLRLSCTGSGRTFRNYPMAWFRQAPGKEREFVAGITWVGASTLYADFAKGRFTISRDNAKNTVYLQMNSLKPEDTAVYSCAAGRGIVAGRIPAEYADWGQGTQVTVSSGGGGSGGGGSGGGGSGGGGGSQAVVIQESALTTPPGETVTLTCGSSTGAVTASNYANWVQEKPDHLFTGLIGGHNNRPPGVPARFSGSLIGDKAALTIAGTQTEDEAIYFCALWYSDHWVIGGGTRLTVLGQPKANPTVTLFPPSSEELQANKATLVCLISDFYPGAVTVAWKADGSPVKAGVETTKPSKQSNNKYAASSYLSLTPEQWKSHRSYSCQVTHEGSTVEKTVAPTECS
heavy: DVQLQESGGGLVQAGGSLRLSCTGSGRTFRNYPMAWFRQAPGKEREFVAGITWVGASTLYADFAKGRFTISRDNAKNTVYLQMNSLKPEDTAVYSCAAGRGIVAGRIPAEYADWGQGTQVTVSSGGGGSGGGGSGGGGSGGGGGSHVKLQESGPGLVQPSQSLSLTCTVSGFSLTDYGVHWVRQSPGKGLEWLGVIWSGGGTAYNTALISRLNIYRDNSKNQVFLEMNSLQAEDTAMYYCARRGSYPYNYFDAWGRGTTVTVSSASTKGPSVFPLAPSSKSTSGGTAALGCLVKDYFPEPVTVSWNSGALTSGVHTFPAVLQSSGLYSLSSVVTVPSSSLGTQTYICNVNHKPSNTKVDKKVEPKSCG
notes: No tetramerization domain; also called YM00005; molecule 4
Take B2: the Kd in [6] was < 0.000309 nM; in experiment [2], 25.1 nM. Also, the kon in experiment [1] was determined as 324000 M⁻¹ s⁻¹; in experiment [2] it was 44700 M⁻¹ s⁻¹. The values for the koff in experiment [2] and in experiment [5] were 0.00112 s⁻¹ and < 1e-07 s⁻¹, respectively. In experiment [4], this molecule returned an EC50 of 0.32 nM.

B3: EGFR-DOTA(fab)-p53 (bispecific antibody)
light: EVQLVESGGGLVQPGGSLRLSCVASGFTFADYAMSWVRQAPGKGLQWVSSISYNGDTTYYAESMKDRFTISRDNAKNTLYLQMNSLKSEDTAVYYCASSGSYYPGHFESWGQGTQVTVSSGGGGSGGGGSGGGGSGGGGGSQAVVIQESALTTPPGETVTLTCGSSTGAVTASNYANWVQEKPDHLFTGLIGGHNNRPPGVPARFSGSLIGDKAALTIAGTQTEDEAIYFCALWYSDHWVIGGGTRLTVLGQPKANPTVTLFPPSSEELQANKATLVCLISDFYPGAVTVAWKADGSPVKAGVETTKPSKQSNNKYAASSYLSLTPEQWKSHRSYSCQVTHEGSTVEKTVAPTECS
heavy: HVKLQESGPGLVQPSQSLSLTCTVSGFSLTDYGVHWVRQSPGKGLEWLGVIWSGGGTAYNTALISRLNIYRDNSKNQVFLEMNSLQAEDTAMYYCARRGSYPYNYFDAWGRGTTVTVSSASTKGPSVFPLAPSSKSTSGGTAALGCLVKDYFPEPVTVSWNSGALTSGVHTFPAVLQSSGLYSLSSVVTVPSSSLGTQTYICNVNHKPSNTKVDKKVEPKSCGGGGSGGGGSKPLDGEYFTLQIRGRERFEMFRELNEALELKDAQAGKEPGGS
notes: The assays name bio-huEGFR and A-431 cells; also called YM00010; molecule 9
In experiment [7], B3 had a Kd of 2.12 nM, a koff of 0.000985 s⁻¹ and a kon of 464000 M⁻¹ s⁻¹. In experiment [8], this molecule showed an EC50 of 51.5 nM.

B4: CD276-DOTA(fab)-p53 (bispecific antibody)
light: DVQLVESGGGLVQPGGSLRLSCAASGFTFSRYWMGWFRQAPGKGVEWVSTINSGGGSTYYADSVKGRFTISRDNAKNTLYLQLNNLKTEDTAMYYCAKEQWRTGSRGQGTQVTVSSSGGGGSGGGGSGGGGSGGGGSQAVVIQESALTTPPGETVTLTCGSSTGAVTASNYANWVQEKPDHLFTGLIGGHNNRPPGVPARFSGSLIGDKAALTIAGTQTEDEAIYFCALWYSDHWVIGGGTRLTVLGQPKANPTVTLFPPSSEELQANKATLVCLISDFYPGAVTVAWKADGSPVKAGVETTKPSKQSNNKYAASSYLSLTPEQWKSHRSYSCQVTHEGSTVEKTVAPTECS
heavy: B3 heavy
notes: Tetramerizes through p53 depending on concentration; also called YM00012; molecule 11
On to B4, for which, in experiment [9], binding was characterised by a dissociation constant (Kd) of 2.5 nM, the koff was determined as 2.26e-05 s⁻¹ and the kon came out at 9050 M⁻¹ s⁻¹. In experiment [10], this molecule returned an EC50 of 2.14 nM. Moreover, in experiment [11], the Kd amounted to 40.1 nM, the koff stood at 0.00456 s⁻¹ and the kon turned out to be 114000 M⁻¹ s⁻¹.
